From patent US20090004211A1, “METHOD FOR EFFECTING LOCALIZED, NON-SYSTEMIC AND SYSTEMIC, IMMUNOGENIC TREATMENT OF CANCER USING ERP57 TRANSLOCATION” (priority 2006, published 2009)
Entries after “also recorded” stand apart in the source; their conditions may differ.

How the values were obtained:
CRT = test: Fluorescence detection of cell surface CRT (cytofluorometry); details: for time after treatment at which CRT exposure is detectable: intact cells; for reversal of siRNA-induced defect at the level of CRT expression: CRT-specific or ERP57 specific siRNA, recombinant protein added
Experimental: CT26 cells (on a glass slide or in 12-well plates) were first washed with FACS buffer (1×PBS, 5% fetus bovine serum, and 0.1% sodium azide) and then incubated with rabbit anti-mouse CRT antibody (1:100, Stressgen), or rabbit anti-mouse ERP57 antibody (abcam) in FACS buffer at 4° C. for 30 min. […] After washing three times with FACS buffer, surface CRT and ERP57 was detected by cytofluorometric analysis on a FACS Vantage. In some experiments, cells were fixed with 4% paraformaldehyde, counterstained with Hoechst (2 μM; Sigma), followed by fluorescence microscopic assessment.
Trypsinized CT26 cells were enucleated as described. Briefly, cells were treated in 2 ml of complete RPMI medium containing cytochalasin B (10 μg/ml; Sigma) and DNase I (80 U/ml; Sigma). […] Gradients containing cell suspensions were centrifugated in a prewarmed SW41 Beckman rotor at 25 000 rpm for 20 minutes at 30° C. […] Then the cell surface CRT was detected (see materials and methods) and the viability was determined by with propidium iodine staining (2 μg/ml, Sigma) for 5 min followed by cytofluorometric analysis.

CT26 cells [1] = tested on: CT26 cells
ERP57 [2] = test: Fluorescence detection of cell surface ERP57 (cytofluorometry); assay type: cell-based, mouse
Experimental: CT26 cells (on a glass slide or in 12-well plates) were first washed with FACS buffer (1×PBS, 5% fetus bovine serum, and 0.1% sodium azide) and then incubated with rabbit anti-mouse CRT antibody (1:100, Stressgen), or rabbit anti-mouse ERP57 antibody (abcam) in FACS buffer at 4° C. for 30 min. Cells reacted with anti-rabbit IgG (H+L) Alexa fluor 488-conjugates (1:500) in FACS buffer at 4° C. for 30 min. After washing three times with FACS buffer, surface CRT and ERP57 was detected by cytofluorometric analysis on a FACS Vantage. In some experiments, cells were fixed with 4% paraformaldehyde, counterstained with Hoechst (2 μM; Sigma), followed by fluorescence microscopic assessment.

ERP57 [3] = test: as above; assay type: cell-based, mouse; details: murine MCA205, B16F10, J558; human HeLa, A549, HCT116
CT26 tumor cells [4] = test: Anti-tumor vaccination: treated dying CT26 cells injected s.c., challenge with live tumor cells in opposite flank; assay type: in vivo, BALB/c mice; details: for restoration of immunogenicity defect by recombinant protein, anti-tumor vaccination: siRNA-transfected, mitoxantrone-treated CT26 cells
CT26 cells [5] = test: Phagocytosis assay: uptake of treated tumor cells by dendritic cells; assay type: cell-based, mouse; details: for reversal of siRNA-induced defect at the level of phagocytosis by DC: CRT-specific or ERP57 specific siRNA, recombinant protein added
Experimental: BM cells were flushed from the tibias and femurs of BALB/c mice with culture medium composed of RPMA 1640 medium supplemented with 10% heat-inactivated FBS, sodium pyruvate, […] 2-ME. 10 mM HEPES (pH 7.4), and penicillin/streptomycin. After one centrifugation, BM cells were resuspended in Tris-ammonium chloride for 2 min to lyse RBC. After one more centrifugation, BM cells (1×10^6 cells/ml) were cultured in medium supplemented with 100 ng/ml recombinant mouse FLT3 ligand in 6-well plates. […] In 12-well plates, […] adherent CT26 cells were labeled with Celltracker Orange and then incubated with drugs. […] Alternatively CT26 cells were coated with 3 μg/10^6 cells of rCRT on ice for 30 minutes and washed twice prior to addition to dendritic cells. Cells were then harvested, washed three times with medium supplemented with FBS and cocultured with immature DC for 2 hours at a ratio of 1:1 and 1:5. At the end of the incubation, cells were harvested with Versene, pooled with non-adherent cells present in the supernatant, washed and stained with CD11c-FITC antibody. Phagocytosis was assessed by FACS analysis of double positive cells. Phagocytic indexes refer to the ratio between values obtained at […] of co-incubation between DC and tumor cells. Trypsinized CT26 cells were enucleated as described. Briefly, cells were treated in 2 ml of complete RPMI medium containing cytochalasin B (10 μg/ml; Sigma) and DNase I (80 U/ml; Sigma). Cell suspension was adjusted to a final concentration of 5×10^6/ml and incubated at 37° C. for 45 minutes before being layered onto a previously prepared discontinuous Ficoll density gradient (3 ml of 100%, in 1 ml of 90% and 3 ml of 55% Ficoll Paque layer containing 5 μg/ml cytochalasin B and 40 U/ml DNase I; gradients were prepared in ultracentrifuge tubes and pre-equilibrated at 37° C. in a CO2 incubator overnight). Gradients containing cell suspensions were centrifugated in a prewarmed SW41 Beckman rotor at 25 000 rpm for 20 minutes at 30° C. The cytoplasts-enriched fraction was collected from the interface between 90 and 100% Ficoll layers, washed in complete RPMI 1640 medium, and incubated at 37° C. The cells were incubated with mitoxantrone (MTX), calyculin (CA), salubrinal (Sal) and toutomycin (TA) for the period of time indicated in the experiment. […] Alternatively cythoplasts were cocultured with immature DC for 2 hours at a ratio of 1:1 and 1:5. At the end of the incubation, cells were harvested with versene, pooled with non-adherent cells present in the supernatant, washed and stained with CD11c-FITC antibody. Phagocytosis was assessed by FACS analysis of double positive cells.

CT26 tumors = test: Treatment of established CT26 tumors by single intratumoral injection; assay type: in vivo, BALB/c mice; details: for therapeutic effect of single intratumoral injection: agent alone
Experimental: (§1) All animals were maintained in specific pathogen-free conditions and all experiments followed the FELASA guidelines. 3×10^6 treated CT26 cells were inoculated s.c. in […] of PBS into BALB/c six-week-old female mice, into the lower flank, while 5×10^5 untreated control cells were inoculated into the contralateral flank. For the tumorigenicity assay, 3×10^6 treated or untreated CT26 cells were injected s.c. into nu/nu mice. To assess the specificity of the immune response against CT26, injections of either 5×10^5 or 5×10^6 of CT26 were made (for the mice immunized in a standard protocol or vaccination protocol, respectively). Tumors were evaluated weekly, using a caliper. In a series of experiments, BALB/c (wild type or nu/nu) carrying palpable CT26 tumors (implanted 14 days before for wild type or 7 days before for nu/nu mice by injection of […] tumor cells) received a single intratumoral injection of […] PBS containing the same concentration of anti-cancer agents and PP1/GADD34 inhibitors as those used in vitro, as well as rCRT ([…]). For the assessment of local immune response, 3×10^5 cells were injected in 50 μl into the footpad of mice. Five days later, mice were sacrificed and the draining lymph nodes were harvested. 1×10^5 lymph node cells were cultured for 4 days alone or with 1×10^4 CT26 cells killed by a freeze-thaw cycle in 200 μl in round-bottom 96-well plates. IFN-γ was determined by ELISA.

CT26 tumor cells [6] = test: Local immune response: tumor cells injected into footpad, IFN-γ secretion by draining lymph node cells (ELISA); assay type: in vivo, Balb/c mice; details: for restoration of immunogenicity defect by recombinant protein, interferon-γ production: siRNA-transfected, mitoxantrone-treated CT26 cells
Experimental: as §1

sperm-egg fusion = test: Sperm-egg fusion assay; assay type: cell-based, ICR mice
Experimental: Gamete Isolation. Using mature, cumulus-free oocytes from superovulated 6-week-old to 8-week-old ICR female mice, eggs were denuded from the zona pellucida and loaded with DAPI. Sperms were collected from each cauda epididymis and vas deferens of 10- to 12-week-old ICR males. […] […] All the experiments were performed according to the animal care and use protocols approved by French and European Union Ethical Committee.
Sperm-Egg Fusion Assay. […] After the incubation, the sperms or eggs were washed. Sperms were added at a final concentration of 1-3×10^5 sperm/ml and coincubated with gamete for 40 min at 37° C. and 5% CO2. The oocytes were then washed to release loosely bound sperms and mounted onto microscope slides. Alternatively, non-capacitated sperms were incubated with recombinant CRT or ERP57, 3 μg/10^5 sperm, for 30 min 37° C. and 5% CO2, followed by three washes with PBS. Sperm-egg fusion scored by the fluorescent labeling of sperm nuclei by DAPI transferred from preloaded eggs. Fertilization rote (FR) is the percentage of oocytes with at least one fused sperm, and Fertilization index (FI) is the mean number of fused sperm per egg. Both the FR and FI are expressed of the control treatment.

DC = DC maturation ex vivo; assay type: cell-based; details: protein alone, large range of concentrations
[7] = immunocompetent BALB/c mice, 14-day-old CT26 tumors

“peptide inhibitor: protein transduction domain-5 (RRQRRTSKLMKR) fused to the inhibitory sequence of the complex PP1/GADD34 (LKARKVRFSEKV) (RRQRRTSKLMKRLKARKVRFSEKV)” was tested, and the “CRT exposure at cell surface” value (CRT; CT26 cells, agent alone) was “increase greatly and quickly”, the “time after treatment at which CRT exposure is detectable” value (CRT) was 1 h and the toxic effect (CT26 cells [1]; 24 h of treatment) was “no toxic effect”. The “percentage of dead cells positive for DAPI and Annexin V” value (CT26 cells [1]; after 24 h of treatment) was “did not increase the percentage of dead cells”, the “ERP57 exposure at cell surface” value (ERP57 [2]; CT26 cells, agent alone) was “increase greatly and quickly” and the “time after treatment at which ERP57 exposure is detectable” value (ERP57 [2]; intact cells) was 1 h.

For O=C1c2c(O)ccc(O)c2C(=O)c2c(NCCNCCO)ccc(NCCNCCO)c21 [mitoxantrone], the “ERP57 exposure on panel of tumor cell lines” value (ERP57 [3]) was “induced”, the “immunogenicity of cell death (protection against tumor growth on rechallenge)” value (CT26 tumor cells [4]; CT26 cells treated in vitro with agent alone, immunocompetent BALB/c mice) was “elicited immunogenic cell death” and the “time after treatment at which tumor cells are phagocytosed by DC” value (CT26 cells [5]; before apoptotic changes) was “within a few hours after treatment”. For the same molecule, the “uptake of treated cytoplasts by DC” value (CT26 cells [5]; enucleated cells (cytoplasts)) was “as efficiently as intact cells”, the “time to CRT exposure in enucleated cells” value (CRT; cytoplasts) was no more than 1 h and the “time after treatment at which CRT exposure is detectable” value (CRT) was 1 h. For the same molecule, the “CRT exposure on panel of tumor cell lines” value (CRT; murine MCA205, B16F10, J558, human HeLa, A549, HCT116) was “induced”, the “therapeutic effect of single intratumoral injection” value (CT26 tumors; [7]) was “permanent regression in some but not all cases” and the “therapeutic effect of single intratumoral injection” value (CT26 tumors; immunodeficient nu/nu mice) was “no cure”. The “time to ERP57 exposure in enucleated cells” value (ERP57 [2]; cytoplasts) was no more than 1 h.

B1: rCRT: recombinant CRT (calreticulin) protein, which binds to the surface of the cells (protein)
chain: DPAIYFKEQFLDGDAWTNRWVESKHKSDFGKFVLSSGKFYGDLEKDKGLQTSQDARFYALSAKFEPFSNKGQTLVVQFTVKHEQNIDCGGGYVKLFPSGLDQKDMHGDSEYNIMFGPDICGPGTKKVHVIFNYKGKNVLINKDIRCKDDEFTHLYTLIVRPDNTYEVKIDNSQVESGSLEDDWDFLPPKKIKDPDAAKPEDWDERAKIDDPTDSKPEDWDKPEHIPDPDAKKPEDWDEEMDGEWEPPVIQNPEYKGEWKPRQIDNPDYKGTWIHPEIDNPEYSPDANIYAYDSFAVLGLDLWQVKSGTIFDNFLITNDEAYAEEFGNETWGVTKAAEKQMKDKQDEEQRLKEEEEDKKRKEEEEAEDKEDDDDRDEDEDEEDEKEEDEEESPGQAKDEL
B1 was tested, and the “immunogenicity of mitomycin C-treated cells with protein absorbed to plasma membrane” value (CT26 tumor cells [6]; mitomycin C-treated cells) was “greatly enhanced the immunogenicity”, the “restoration of immunogenicity defect by recombinant protein, interferon-γ production” value (“restoration … interferon-γ production” for short) (CT26 tumor cells [6]) was “this defect was restored” and the “anti-tumor immune response to etoposide-treated cells coated with protein” value (CT26 tumor cells [4]; etoposide-treated cells) was “elicited a vigorous anti-tumor immune response”. The “anti-cancer immune response, protein absorbed to cells without prior cell death inducer” value (CT26 tumor cells [4]; live cells, no cell death inducer) was “failed to elicit an anti-cancer immune response”, the “restoration of immunogenicity defect by recombinant protein, anti-tumor vaccination” value (“restoration … anti-tumor vaccination” below) (CT26 tumor cells [4]) was “this defect was restored; also recorded: restores the protection against tumors” and the “reversal of siRNA-induced defect at the level of phagocytosis by DC” value (CT26 cells [5]) was “could reverse the defect; also recorded: restores phagocytosis”. For the same molecule, the “reversal of siRNA-induced defect at the level of CRT expression” value (CRT) was “could reverse the defect”, the “sperm-egg fusion, recombinant protein absorbed to sperm without prior capacitation” value (sperm-egg fusion; non-capacitated sperm) was “restores very efficiently the fusion” and the “therapeutic effect of single intratumoral injection” value (CT26 tumors; [7]) was “no major therapeutic effect”. For the same molecule, the “therapeutic effect of single intratumoral injection” value (CT26 tumors; immunodeficient nu/nu mice) was “no major therapeutic effect”, the “effect of injection into a distant site on antitumoral effects of intratumorally injected etoposide” value (CT26 tumors; contralateral subcutaneous injection) was “did not ameliorate the antitumoral effects” and the “therapeutic effect of intratumoral injection combined with etoposide or mitomycin C” value (CT26 tumors; immunocompetent animals) was “able to cause tumor regression”. The “therapeutic effect of intratumoral injection combined with etoposide or mitomycin C” value (CT26 tumors; immunodeficient (athymic) animals) was “not in immunodeficient” and the “DC maturation ex vivo” value (DC) was “could not promote DC maturation”.

B2: rERP57: recombinant ERP57 protein (protein)
chain: SDVLELTDENFESRVSDTGSAGLMLVEFFAPWCGHCKRLAPEYEAAATRLKGIVPLAKVDCTANTNTCNKYGVSGYPTLKIFRDGEEAGAYDGPRTADGIVSHLKKQAGPASVPLRTEEEFKKFISDKDASVVGFFRDLFSDGHSEFLKAASNLRDNYRFAHTNIESLVKEYDDNGEGITIFRPLHLANKFEDKTVAYTEKKMTSGKIKKFIQDSIFGLCPHMTEDNKDLIQGKDLLTAYYDVDYEKNAKGSNYWRNRVMMVAKKFLDAGHKLNFAVASRKTFSHELSDFGLESTTGEVPVVAIRTAKGEKFVMQEEFSRDGKALEQFLQEYFDGNLKRYLKSEPIPESNEGPVKVVVAENFDDIVNEEDKDVLIEFYAPWCGHCKNLEPKYKELGEKLSKDPNIVIAKMDATANDVPSPYEVKGFPTIYFSPANKKLTPKKYEGGRELNDFISYLQREATNPPIIQEEKPKKKKKAQEDL
In the case of B2, the “restoration … interferon-γ production” value (CT26 tumor cells [6]) is reported as “not restored”, the “restoration … interferon-γ production” value (CT26 tumor cells [6]; listed as recombinant ERP57) is reported as “did not restore” and the “restoration … anti-tumor vaccination” value (CT26 tumor cells [4]) is reported as “not restored”. For the same molecule, the “restoration … anti-tumor vaccination” value (CT26 tumor cells [4]; listed as recombinant ERP57) was “did not restore the protection against tumors”, the “reversal of siRNA-induced defect at the level of phagocytosis by DC” value (CT26 cells [5]) was “did not reverse the defect” and the “reversal of siRNA-induced defect at the level of CRT expression” value (CRT) was “did not reverse the defect”. The “fertilization rate and index” value (sperm-egg fusion; non-capacitated sperm with recombinant protein) was “no significant effect” and the “DC maturation ex vivo” value (DC) was “could not promote DC maturation”.
